PMC11876703, “Structural basis for human NKCC1 inhibition by loop diuretic drugs” (The EMBO Journal, 2025)

T1: phospho-activated human NKCC1 (Na+-K+-Cl- cotransporter 1) (human), P55011
T1 chain: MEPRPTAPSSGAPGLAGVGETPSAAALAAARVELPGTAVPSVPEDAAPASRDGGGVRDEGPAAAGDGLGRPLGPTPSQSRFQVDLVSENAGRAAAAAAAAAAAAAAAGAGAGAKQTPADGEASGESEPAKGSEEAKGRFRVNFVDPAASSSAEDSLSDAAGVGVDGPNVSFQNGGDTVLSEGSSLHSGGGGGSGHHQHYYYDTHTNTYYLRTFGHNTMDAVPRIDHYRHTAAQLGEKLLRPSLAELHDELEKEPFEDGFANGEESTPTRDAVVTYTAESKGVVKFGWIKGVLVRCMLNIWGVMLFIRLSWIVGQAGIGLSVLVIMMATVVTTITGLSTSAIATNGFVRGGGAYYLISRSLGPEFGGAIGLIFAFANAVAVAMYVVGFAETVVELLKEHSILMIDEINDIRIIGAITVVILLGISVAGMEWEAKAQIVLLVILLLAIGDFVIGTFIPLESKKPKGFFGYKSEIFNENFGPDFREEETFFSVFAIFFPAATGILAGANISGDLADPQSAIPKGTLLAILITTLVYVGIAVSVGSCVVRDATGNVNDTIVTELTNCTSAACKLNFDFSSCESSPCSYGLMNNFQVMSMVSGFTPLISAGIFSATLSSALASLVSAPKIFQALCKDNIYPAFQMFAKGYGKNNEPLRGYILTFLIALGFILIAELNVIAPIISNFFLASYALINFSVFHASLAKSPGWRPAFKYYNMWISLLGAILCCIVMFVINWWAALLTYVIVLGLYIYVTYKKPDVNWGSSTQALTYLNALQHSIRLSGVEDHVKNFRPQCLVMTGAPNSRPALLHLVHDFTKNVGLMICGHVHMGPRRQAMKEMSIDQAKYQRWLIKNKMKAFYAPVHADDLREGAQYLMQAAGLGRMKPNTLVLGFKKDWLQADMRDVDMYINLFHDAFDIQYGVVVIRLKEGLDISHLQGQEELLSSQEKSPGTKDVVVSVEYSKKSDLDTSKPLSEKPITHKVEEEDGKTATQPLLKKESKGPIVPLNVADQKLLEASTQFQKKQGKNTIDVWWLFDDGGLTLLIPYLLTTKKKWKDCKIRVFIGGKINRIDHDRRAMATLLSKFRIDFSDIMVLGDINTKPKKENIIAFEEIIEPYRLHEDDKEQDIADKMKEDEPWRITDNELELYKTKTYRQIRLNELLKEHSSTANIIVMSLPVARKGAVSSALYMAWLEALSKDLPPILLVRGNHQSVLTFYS


Columns and labels:
[1] = biological target: T1, phospho-activated human NKCC1 …; assay: cryo-EM structure; purified pNKCC1 in GDN, 20 mM HEPES pH 7.4, with 100 uM bumetanide, 100 uM torsemide (K+-free buffer) or 2 mM furosemide plus 100 uM ATP; homodimer; settings: remark: other sources report otherwise
[2] = biological target: the molecule itself; assay: as above

Row | stoichiometry N [1] | Binder | stoichiometry N [2]
1 | 2 | phospho-activated human NKCC1 (Na+-K+-Cl- cotransporter 1), P55011 1-1212 (natural protein, here or on the partner: phosphothreonine at Thr212, Thr217 and Thr230 (verified by mass spectrometry); Thr203, Thr205 and Thr207 also named as phosphoacceptor sites confirmed by mass spectrometry; phosphothreonine at Thr212, Thr217 and Thr230 (verified by mass spectrometry); Thr203, Thr205 and Thr207 also named as phosphoacceptor sites confirmed by mass spectrometry) MEPRPTAPSSGAPGLAGVGETPSAAALAAARVELPGTAVPSVPEDAAPASRDGGGVRDEGPAAAGDGLGRPLGPTPSQSRFQVDLVSENAGRAAAAAAAAAAAAAAAGAGAGAKQTPADGEASGESEPAKGSEEAKGRFRVNFVDPAASSSAEDSLSDAAGVGVDGPNVSFQNGGDTVLSEGSSLHSGGGGGSGHHQHYYYDTHTNTYYLRTFGHNTMDAVPRIDHYRHTAAQLGEKLLRPSLAELHDELEKEPFEDGFANGEESTPTRDAVVTYTAESKGVVKFGWIKGVLVRCMLNIWGVMLFIRLSWIVGQAGIGLSVLVIMMATVVTTITGLSTSAIATNGFVRGGGAYYLISRSLGPEFGGAIGLIFAFANAVAVAMYVVGFAETVVELLKEHSILMIDEINDIRIIGAITVVILLGISVAGMEWEAKAQIVLLVILLLAIGDFVIGTFIPLESKKPKGFFGYKSEIFNENFGPDFREEETFFSVFAIFFPAATGILAGANISGDLADPQSAIPKGTLLAILITTLVYVGIAVSVGSCVVRDATGNVNDTIVTELTNCTSAACKLNFDFSSCESSPCSYGLMNNFQVMSMVSGFTPLISAGIFSATLSSALASLVSAPKIFQALCKDNIYPAFQMFAKGYGKNNEPLRGYILTFLIALGFILIAELNVIAPIISNFFLASYALINFSVFHASLAKSPGWRPAFKYYNMWISLLGAILCCIVMFVINWWAALLTYVIVLGLYIYVTYKKPDVNWGSSTQALTYLNALQHSIRLSGVEDHVKNFRPQCLVMTGAPNSRPALLHLVHDFTKNVGLMICGHVHMGPRRQAMKEMSIDQAKYQRWLIKNKMKAFYAPVHADDLREGAQYLMQAAGLGRMKPNTLVLGFKKDWLQADMRDVDMYINLFHDAFDIQYGVVVIRLKEGLDISHLQGQEELLSSQEKSPGTKDVVVSVEYSKKSDLDTSKPLSEKPITHKVEEEDGKTATQPLLKKESKGPIVPLNVADQKLLEASTQFQKKQGKNTIDVWWLFDDGGLTLLIPYLLTTKKKWKDCKIRVFIGGKINRIDHDRRAMATLLSKFRIDFSDIMVLGDINTKPKKENIIAFEEIIEPYRLHEDDKEQDIADKMKEDEPWRITDNELELYKTKTYRQIRLNELLKEHSSTANIIVMSLPVARKGAVSSALYMAWLEALSKDLPPILLVRGNHQSVLTFYS | –
2 | – | phospho-activated human NKCC1 bearing K289N and A492E mutations (natural protein, UniProt P55011 1-1212, looked up, phosphothreonine at Thr212, Thr217 and Thr230 (verified by mass spectrometry; pT212 and pT217 clearly seen in the map, pT230 tentatively modeled); Thr203, Thr205 and Thr207 also named as phosphoacceptor sites confirmed by mass spectrometry, Used for the furosemide/ATP-Mg2+ co-structure; The tag was used for Strep-Tactin purification and no cleavage step is described; also called pNKCC1; NKCC1 (furosemide co-structure); source: calyculin-A treated; purified (Strep-Tactin resin, Superose 6) in GDN with 100 uM ATP) MEPRPTAPSSGAPGLAGVGETPSAAALAAARVELPGTAVPSVPEDAAPASRDGGGVRDEGPAAAGDGLGRPLGPTPSQSRFQVDLVSENAGRAAAAAAAAAAAAAAAGAGAGAKQTPADGEASGESEPAKGSEEAKGRFRVNFVDPAASSSAEDSLSDAAGVGVDGPNVSFQNGGDTVLSEGSSLHSGGGGGSGHHQHYYYDTHTNTYYLRTFGHNTMDAVPRIDHYRHTAAQLGEKLLRPSLAELHDELEKEPFEDGFANGEESTPTRDAVVTYTAESKGVVKFGWINGVLVRCMLNIWGVMLFIRLSWIVGQAGIGLSVLVIMMATVVTTITGLSTSAIATNGFVRGGGAYYLISRSLGPEFGGAIGLIFAFANAVAVAMYVVGFAETVVELLKEHSILMIDEINDIRIIGAITVVILLGISVAGMEWEAKAQIVLLVILLLAIGDFVIGTFIPLESKKPKGFFGYKSEIFNENFGPDFREEETFFSVFEIFFPAATGILAGANISGDLADPQSAIPKGTLLAILITTLVYVGIAVSVGSCVVRDATGNVNDTIVTELTNCTSAACKLNFDFSSCESSPCSYGLMNNFQVMSMVSGFTPLISAGIFSATLSSALASLVSAPKIFQALCKDNIYPAFQMFAKGYGKNNEPLRGYILTFLIALGFILIAELNVIAPIISNFFLASYALINFSVFHASLAKSPGWRPAFKYYNMWISLLGAILCCIVMFVINWWAALLTYVIVLGLYIYVTYKKPDVNWGSSTQALTYLNALQHSIRLSGVEDHVKNFRPQCLVMTGAPNSRPALLHLVHDFTKNVGLMICGHVHMGPRRQAMKEMSIDQAKYQRWLIKNKMKAFYAPVHADDLREGAQYLMQAAGLGRMKPNTLVLGFKKDWLQADMRDVDMYINLFHDAFDIQYGVVVIRLKEGLDISHLQGQEELLSSQEKSPGTKDVVVSVEYSKKSDLDTSKPLSEKPITHKVEEEDGKTATQPLLKKESKGPIVPLNVADQKLLEASTQFQKKQGKNTIDVWWLFDDGGLTLLIPYLLTTKKKWKDCKIRVFIGGKINRIDHDRRAMATLLSKFRIDFSDIMVLGDINTKPKKENIIAFEEIIEPYRLHEDDKEQDIADKMKEDEPWRITDNELELYKTKTYRQIRLNELLKEHSSTANIIVMSLPVARKGAVSSALYMAWLEALSKDLPPILLVRGNHQSVLTFYS | 2
